According to FireProtDB (doi:10.1021/bi990893b):

B1: Cytochrome b5, P00171 (parent)
chain: MAEESSKAVKYYTLEEIQKHNNSKSTWLILHYKVYDLTKFLEEHPGGEEVLREQAGGDATENFEDVGHSTDARELSKTFIIGELHPDDRSKITKPSESIITTIDSNPSWWTNWLIPAISALFVALIYHLYTSEN

Variants of: B1
Conditions: Bos taurus, pH 7, Thermal, Absorbance, Sodium phosphate 100 mM, structure 1CYO, whole UniProt chain shown; for ddG of mutation (higher = less stable): 67.2 °C

With MAEESSKAVKYYTLEEIQKHNNSKSTWLILHYKVYDLTKFLEEHPGGEEVLREQAGGDATENFEDYGHSTDARELSKTFIIGELHPDDRSKITKPSESIITTIDSNPSWWTNWLIPAISALFVALIYHLYTSEN [V66Y] the “ddG of mutation (higher = less stable)” value was 1.29 kcal/mol, the Tm was 62.5 °C and the “change of melting temperature, mutant - wild type (higher = more stable)” value (“change of melting temperature, mutant” below) was -4.7 °C. The “unfolding enthalpy (van 't Hoff)” value was 91.3 kcal/mol.

In the case of MAEESSKAVKYYTLEEIQKHNNSKSTWLILHYKVYDLTKFLEEHPGGEEVLREQAGGDATENFEDKGHSTDARELSKTFIIGELHPDDRSKITKPSESIITTIDSNPSWWTNWLIPAISALFVALIYHLYTSEN [V66K], the “ddG of mutation (higher = less stable)” value is reported as 2.34 kcal/mol, the Tm is reported as 58.5 °C and the “change of melting temperature, mutant” value is reported as -8.7 °C. For the same variant, the “unfolding enthalpy (van 't Hoff)” value was 87 kcal/mol.

With MAEESSKAVKYYTLEEIQKHNNSKSTWLILHYKVYDLTKFLEEHPGGEEVLREQAGGDATENFEDEGHSTDARELSKTFIIGELHPDDRSKITKPSESIITTIDSNPSWWTNWLIPAISALFVALIYHLYTSEN [V66E] the “ddG of mutation (higher = less stable)” value was 1.1 kcal/mol, the Tm was 63.2 °C and the “change of melting temperature, mutant” value was -4 °C. The “unfolding enthalpy (van 't Hoff)” value was 93.2 kcal/mol.

In the case of MAEESSKAVKYYTLEEIQKHNNSKSTWLILHYKVYDLTKFLEEHPGGEEVLREQAGGDATENFEDHGHSTDARELSKTFIIGELHPDDRSKITKPSESIITTIDSNPSWWTNWLIPAISALFVALIYHLYTSEN [V66H], the “ddG of mutation (higher = less stable)” value is reported as 1.63 kcal/mol, the Tm is reported as 61.3 °C and the “change of melting temperature, mutant” value is reported as -5.9 °C. The “unfolding enthalpy (van 't Hoff)” value was 88.2 kcal/mol.
